The values that follow come from paper PMC11772769, “Selective cargo and membrane recognition by SNX17 regulates its interaction with Retriever” (EMBO Reports, 2024).

This assay concerns the target T1, Peptide SNX17_(CT-18), Q15036.
T1 chain: ASDVHGNFAFEGIGDEDL
Description: fluorescence anisotropy. As to conditions: chain shown with the change; 5-FAM-labeled SNX17CT-18 peptide; parent: LB.

B1: MBP-SNX17 (full-length, wild-type), Q15036 N459A; F462A (protein)
chain: MHFSIPETESRSGDSGGSAYVAYNIHVNGVLHCRVRYSQLLGLHEQLRKEYGANVLPAFPPKKLFSLTPAEVEQRREQLEKYMQAVRQDPLLGSSETFNSFLRRAQQETQQVPTEEVSLEVLLSNGQKVLVNVLTSDQTEDVLEAVAAKLDLPDDLIGYFSLFLVREKEDGAFSFVRKLQEFELPYVSVTSLRSQEYKIVLRKSYWDSAYDDDVMENRVGLNLLYAQTVSDIERGWILVTKEQHRQLKSLQEKVSKKEFLRLAQTLRHYGYLRFDACVADFPEKDCPVVVSAGNSELSLQLRLPGQQLREGSFRVTRMRCWRVTSSVPLPSGSTSSPGRGRGEVRLELAFEYLMSKDRLQWVTITSPQAIMMSICLQSMVDELMVKKSGGSIRKMLRRRVGGTLRRSDSQQAVKSPPLLESPDATRESMVKLSSKLSAVSLRGIGSPSTDASASDVHGAFAAEGIGDEDL
As to B1, the Kd turned out to be 86 µM.
